Test [1] addresses T1, Phl p 7 (antigen of HAPPID1) on an SA chip (Phleum pratense (common timothy), UniProt O82040).
T1 construct: Held on a streptavidin chip; also called SA-Phl p 7 chip
The test can be described thus: SPR; IgD (HAPPID1) captured by its antigen Phl p 7 on an SA chip; 25 nM aδNb408 or aδNb408-Nb pairs flowed over; 25 °C, running buffer with 5 mM CaCl2. The following applies: both partners purified.

The target of test [2] is IgD-Fc (Fc region of human IgD, SpyTagged) (human). The experiment in a line: SEC; complexes of Nb and IgD-Fc with IgD-Fc at 2 µM, incubated overnight at 4 °C; Superdex 200 Increase 10/300 GL in HBS-az at 10 °C.
In test [3] the target is His-tagged IgD (SpyTagged HAPPID1: human anti-Phl p 7 IgD 102.1F10 with SpyTag003 and His6-tag on the heavy chain) (human) (UniProt P01880). The test can be described thus: SPR; His-tagged IgD (100 nM) captured on an anti-His chip (CM5); two-fold dilution series of TEV-cleaved Nbs, 200 nM to 1.6 nM, flowed over; Biacore T200, 25 °C, 10 mM HEPES pH 7.4, 150 mM NaCl, 0.05% P20; koff from mono- or biphasic decay, kon from kobs against concentration, KD = koff/kon.

Test [4] concerns the target IgD on Namalwa B cells (membrane-bound IgD) (human (endogenous in Namalwa)) (UniProt P01880). The experiment in a line: flow cytometry on cells; Namalwa cells incubated with 1 µM AF488-labeled Nb:Catcher fusion in PBS pH 7.3, 1% BSA, 0.1% NaN3, 1 h at 4 °C (1 µM, 500 nM and 250 nM for titration); median fluorescence intensity.

IgD on Namalwa B cells (membrane-bound IgD) (human (endogenous in Namalwa)), sequence (P01880 whole entry, looked up, the tested form may be a part): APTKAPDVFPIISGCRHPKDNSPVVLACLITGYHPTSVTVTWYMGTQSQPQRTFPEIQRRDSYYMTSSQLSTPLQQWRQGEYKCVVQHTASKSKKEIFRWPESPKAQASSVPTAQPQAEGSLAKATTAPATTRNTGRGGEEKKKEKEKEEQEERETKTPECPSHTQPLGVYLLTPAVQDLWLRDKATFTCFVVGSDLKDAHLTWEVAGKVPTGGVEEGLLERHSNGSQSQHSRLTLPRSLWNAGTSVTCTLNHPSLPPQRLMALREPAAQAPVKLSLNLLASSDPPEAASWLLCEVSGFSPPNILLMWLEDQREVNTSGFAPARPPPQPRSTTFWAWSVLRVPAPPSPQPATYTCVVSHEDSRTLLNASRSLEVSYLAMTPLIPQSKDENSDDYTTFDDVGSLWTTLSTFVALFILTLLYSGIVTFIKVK
T1 sequence (O82040 whole entry): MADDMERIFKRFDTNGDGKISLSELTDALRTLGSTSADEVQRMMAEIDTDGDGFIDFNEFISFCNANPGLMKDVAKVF

B1: human anti-Phl p 7 IgD 102.1F10 (HAPPID1) (antibody, V domains shown)
VH: QVQLVQSGAEVRNPGASVKVSCKASGYTFTSYAIHWVRQAPGHRLEWVGRINTDNGNTKYSQKFHGRVALSRDTSASTTYMDLSSLNSEDTAVYYCARAFYYSSGVMFDSWGQGALVTVSS
VL: QSALTQPPSVSGAPGQRVSISCTGGSSNFGAGYDVHWYQQLPATAPKLLIYGNNNRPSGVPDRFSGSKSGTSASLAITGLQAEDEGDYFCQSFDTSLSGWIFGGGTKLTVL
notes: heavy-chain variable domain of the human anti-Phl p 7 antibody 102.1F10; pVITRO1-HAPPID1 at Addgene; human immunoglobulin heavy constant delta, secreted form; UniProt P01880-1 is printed for the IgD-Fc used in this study; light chain of 102.1F10; also called full-length IgD; source: stably transfected FreeStyle 293-F cells; copies: 2 + 2
B1: the binding result in test [1] is listed as “binds”.

B2: His-tagged anti-IgD Nb 367 (aδNb367) (VHH)
VHH: QVQLQESGGGLVQPGGSLRLACAASGFSLSTYTMSWVRQSPGKGLEWVSTITSDGGWTSYRDSVKGRFTISRDNAKNTLYLQMNSLNPEDTAVYYCRRGVGVVRGERPGGQGTQVTVSS
In the case of B2, in test [2], the stoichiometry N was 2 Nb:IgD.

B3: anti-IgD Nb 367 (aδNb367), TEV-cleaved (VHH)
VHH: QVQLQESGGGLVQPGGSLRLACAASGFSLSTYTMSWVRQSPGKGLEWVSTITSDGGWTSYRDSVKGRFTISRDNAKNTLYLQMNSLNPEDTAVYYCRRGVGVVRGERPGGQGTQVTVSS
For B3, in test [3], the Kd amounted to 2.4 nM, the koff turned out to be 0.00047 s⁻¹ and the kon amounted to 200000 M⁻¹ s⁻¹.

B4: AF488-labeled monovalent aδNb367 (SpyTagged aδNb367 reacted with AF488-labeled SpyCatcher003) (VHH)
VHH: QVQLQESGGGLVQPGGSLRLACAASGFSLSTYTMSWVRQSPGKGLEWVSTITSDGGWTSYRDSVKGRFTISRDNAKNTLYLQMNSLNPEDTAVYYCRRGVGVVRGERPGGQGTQVTVSS
With B4, the MFI in test [4] is 1450.

B5: anti-IgD Nb 571 (aδNb571), TEV-cleaved (VHH)
VHH: QVQLQESGGGLVQPGGSLRLSCAASGTPFSASVMAWYRQAPGKERVWVATITSDSMTYYADSVNGRFTISRDNAKSTVYLQMNSLKPEDTAAYICRHAASASWGQGTQVTVSS
On to B5, for which, in test [3], the Kd came to 0.66 nM, the koff worked out at 0.0012 s⁻¹ and the kon was found to be 1.8e+06 M⁻¹ s⁻¹.

B6: His-tagged anti-IgD Nb 571 (aδNb571) (VHH)
VHH: QVQLQESGGGLVQPGGSLRLSCAASGTPFSASVMAWYRQAPGKERVWVATITSDSMTYYADSVNGRFTISRDNAKSTVYLQMNSLKPEDTAAYICRHAASASWGQGTQVTVSS
As to B6, in test [2], the stoichiometry N was 1 Nb:IgD.

B7: AF488-labeled monovalent aδNb571 (SpyTagged aδNb571 reacted with AF488-labeled SpyCatcher003) (VHH)
VHH: QVQLQESGGGLVQPGGSLRLSCAASGTPFSASVMAWYRQAPGKERVWVATITSDSMTYYADSVNGRFTISRDNAKSTVYLQMNSLKPEDTAAYICRHAASASWGQGTQVTVSS
B7 gave an MFI in test [4] of 921.

B8: anti-IgD Nb 408 (aδNb408), TEV-cleaved (VHH)
VHH: QVQLQESGGGLVQAGDSLRLSCVASGRSISNDAMAWFRQAPGKEREFVAAITWRYSNTHYSDSVKDRFTISRDNAKNTVYLQMNSLKPEDTADYYCAADRRGTGASSYSRDYDYWGQGTQVTVSS
In test [3], B8 displayed a KD1 of 0.89 nM, a KD2 of 5.2 nM, a koff1 of 0.00074 s⁻¹ and a koff2 of 0.0043 s⁻¹. The molecule also returned an on-rate constant (kon) in test [3] of 820000 M⁻¹ s⁻¹.

B9: AF488-labeled monovalent aδNb408 (SpyTagged aδNb408 reacted with AF488-labeled SpyCatcher003) (VHH)
VHH: QVQLQESGGGLVQAGDSLRLSCVASGRSISNDAMAWFRQAPGKEREFVAAITWRYSNTHYSDSVKDRFTISRDNAKNTVYLQMNSLKPEDTADYYCAADRRGTGASSYSRDYDYWGQGTQVTVSS
In test [4], B9 yielded an MFI of 1340.

B10: His-tagged anti-IgD Nb 408 (aδNb408) (VHH)
VHH: QVQLQESGGGLVQAGDSLRLSCVASGRSISNDAMAWFRQAPGKEREFVAAITWRYSNTHYSDSVKDRFTISRDNAKNTVYLQMNSLKPEDTADYYCAADRRGTGASSYSRDYDYWGQGTQVTVSS
As for B10, the stoichiometry N in test [2] was 2 Nb:IgD.

B11: anti-IgD Nb 107 (aδNb107), TEV-cleaved (VHH)
VHH: QVQLQESGGGLVQAGASLRLSCTASERTFSPYAMGWFRQAPGREREVIASIFWTGGNTGYADSVKGRFTISRDTAKNTVYLQMSNLKPEDTAVYYCGARTSASAPIYGLWGQGTQVTVSS
In test [3], B11 registered a KD1 of 3.2 nM, a KD2 of 22 nM, a koff1 of 0.00066 s⁻¹ and a koff2 of 0.0046 s⁻¹. Also, in test [3], the kon was determined as 210000 M⁻¹ s⁻¹.

B12: His-tagged anti-IgD Nb 107 (aδNb107) (VHH)
VHH: QVQLQESGGGLVQAGASLRLSCTASERTFSPYAMGWFRQAPGREREVIASIFWTGGNTGYADSVKGRFTISRDTAKNTVYLQMSNLKPEDTAVYYCGARTSASAPIYGLWGQGTQVTVSS
Regarding B12, the stoichiometry N in test [2] is 2 Nb:IgD.

B13: AF488-labeled monovalent aδNb107 (SpyTagged aδNb107 reacted with AF488-labeled SpyCatcher003) (VHH)
VHH: QVQLQESGGGLVQAGASLRLSCTASERTFSPYAMGWFRQAPGREREVIASIFWTGGNTGYADSVKGRFTISRDTAKNTVYLQMSNLKPEDTAVYYCGARTSASAPIYGLWGQGTQVTVSS
B13 returned an MFI in test [4] of 662.

The values are drawn from publication PMC12238353 (Scientific Reports, 2025).
